Experimental findings from patent publication US12097241B2, “Methods of treating kidney failure, and/or improving or stablizing renal function using modified relaxin polypeptides” (BRISTOL-MYERS SQUIBB COMPANY, priority 2017, dated 2024) are described below.

Read-outs that look alike come from different tables or passages of the source.

One data set deals with T1, human RXFP1 receptor (Homo sapiens, UniProt Q9HBX9).
T1 construct: expressed in transfected cells
T1 sequence (Q9HBX9 1-757): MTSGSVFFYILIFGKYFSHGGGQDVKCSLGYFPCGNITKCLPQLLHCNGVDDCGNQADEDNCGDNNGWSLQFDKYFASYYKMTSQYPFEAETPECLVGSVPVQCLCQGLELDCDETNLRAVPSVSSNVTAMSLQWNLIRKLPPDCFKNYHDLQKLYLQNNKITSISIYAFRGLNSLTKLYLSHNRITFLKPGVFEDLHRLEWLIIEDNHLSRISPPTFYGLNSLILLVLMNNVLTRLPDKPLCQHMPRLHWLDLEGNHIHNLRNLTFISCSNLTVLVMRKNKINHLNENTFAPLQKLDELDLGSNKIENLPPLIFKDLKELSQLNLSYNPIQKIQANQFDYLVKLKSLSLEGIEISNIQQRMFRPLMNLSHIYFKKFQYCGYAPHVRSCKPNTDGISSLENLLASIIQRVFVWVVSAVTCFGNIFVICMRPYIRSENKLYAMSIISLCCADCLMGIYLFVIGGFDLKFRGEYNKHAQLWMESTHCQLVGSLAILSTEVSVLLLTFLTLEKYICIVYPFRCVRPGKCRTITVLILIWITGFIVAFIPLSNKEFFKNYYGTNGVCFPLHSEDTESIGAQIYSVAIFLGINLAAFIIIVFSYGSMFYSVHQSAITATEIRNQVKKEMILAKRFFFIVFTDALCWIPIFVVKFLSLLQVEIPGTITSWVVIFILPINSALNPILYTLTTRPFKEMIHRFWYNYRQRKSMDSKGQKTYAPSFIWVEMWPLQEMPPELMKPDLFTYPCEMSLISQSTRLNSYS
The data set is described as follows: Intracellular cAMP accumulation assay. It counts as cell-based. A general note: cAMP levels reflect the balance of adenylyl cyclase and phosphodiesterase activity.

A short description of data set [1]: In vivo pharmacokinetic (PK) studies in rats. The settings on record: rat, male Sprague-Dawley rats, single SC dose 1.0 mg/kg, serum ELISA; for AUC(0-inf): read-out: Rat PK AUC Total; for level at time molar at 24 h: read-out: Rat PK C24. Also on record: species or system Sprague-Dawley rats. In outline: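 Male Sprague-Dawley rats (n=3) given a single 1 mg/kg IV or SC dose of relaxin constructs in 20 mM histidine, 750 mM NaCl, pH 6.0; jugular serum sampled to 72 h. Serum relaxin by ELISA; Cmax, AUCinf, C24 and half-life from non-compartmental analysis of individual profiles.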
In general terms: ELISA stands for enzyme-linked immunosorbent assay.

Procedure for human RXFP1 receptor: The intracellular cAMP accumulation assay described herein was used to assess relaxin bioactivity and potency.
CHO-K1 cells (ATCC; Cat. #CRL-9618) stably expressing the human RXFP1 receptor (locus number LOC59350) (10,000/well) were plated into 96-well plates and cultured overnight at 37° C. and 5% CO2. On the following day, the medium was removed from the wells and the cells were stimulated with the addition of ligand (relaxin polypeptide) in 50 uL buffer (1×HBSS, 5 mM HEPES (7.2), 0.5 mM IBMX, 0.1% BSA); incubation was for 10 min at 37° C. Unstimulated cells were utilized as reference controls. Reactions were terminated and cellular cAMP levels were measured using the Homogeneous Time Resolved Fluorescence (HTRF) Dynamic 2 cAMP kit (CisBio, #62AM4PEC) according to the manufacturer's protocol. Plates were analyzed using an EnVision 2104 Multilablel Reader (PerkinElmer). Signal was expressed in terms of the ratio of fluorescence intensity @ 665 nm/fluorescence intensity @620 nm×10,000. The concentration of cAMP in the sample was determined by comparison with standard curves generated from known concentrations of cAMP. The potency of each relaxin was determined using a ten-point concentration response curves which was performed in duplicate. The data were analyzed using Microsoft Excel, Version 2013 Xlfit software. Effective concentration 50 (EC50) values, the point at which the response was one-half maximal, were calculated using a four-parameter logistic equation that allowed for a variable-slope (Table 3).

`CC[C@H](C)[C@@H]1NC(=O)[C@H](C)NC(=O)[C@H]([C@@H](C)CC)NC(=O)[C@H](CCC(N)=O)NC(=O)[C@H](C)NC(=O)[C@H](CCCNC(=N)N)NC(=O)[C@H](C(C)C)NC(=O)[C@H](CC(C)C)NC(=O)[C@H](CCC(=O)O)NC(=O)[C@H](CCCNC(=N)N)NC(=O)CNC(=O)[C@@H](NC(=O)[C@H](CC(C)C)NC(=O)[C@H](CCCCN)NC(=O)[C@@H](NC(=O)[C@@H](NC(=O)[C@H](CCC(=O)O)NC(=O)[C@H](CCC(=O)O)NC(=O)[C@H](CCSC)NC(=O)[C@H](Cc2c[nH]c3ccccc23)NC(=O)[C@H](CO)NC(=O)[C@H](C)N)C(C)C)[C@@H](C)CC)CSSC[C@@H]2NC(=O)[C@@H](NC(=O)[C@H](CCCCN)NC(=O)[C@H](CC(N)=O)NC(=O)[C@H](C)NC(=O)[C@H](CC(C)C)NC(=O)[C@H](C)NC(=O)[C@H](CO)NC(=O)[C@H](Cc3ccc(O)cc3)NC(=O)[C@H](CC(C)C)NC(=O)[C@@H](N)Cc3ccc(C(C)=NOCCNC(=O)[C@H](CCCCN)NC(=O)[C@H](CCCCN)NC(=O)[C@H](CO)NC(=O)CNC(=O)CNC(=O)[C@H](CO)NC(=O)CNC(=O)CNC(=O)[C@H](CCC(=O)O)NC(=O)[C@H](CCC(=O)O)NC(=O)CC[C@H](NC(=O)CCCCCCCCCCCCC(=O)O)C(=O)O)cc3)CSSC[C@H](NC(=O)CNC(=O)[C@H](C(C)C)NC(=O)[C@H](Cc3c[nH]cn3)NC2=O)C(=O)N[C@@H]([C@@H](C)O)C(=O)N[C@@H](CCCCN)C(=O)N[C@@H](CCCNC(=N)N)C(=O)N[C@@H](CO)C(=O)N[C@@H](CC(C)C)C(=O)N[C@@H](C)C(=O)N[C@@H](CCCNC(=N)N)C(=O)N[C@@H](Cc2ccccc2)C(=O)N[C@H](C(=O)O)CSSC[C@@H](C(=O)NCC(=O)N[C@@H](CCSC)C(=O)N[C@@H](CO)C(=O)N[C@H](C(=O)N[C@@H](Cc2c[nH]c3ccccc23)C(=O)N[C@@H](CO)C(=O)O)[C@@H](C)O)NC1=O` [AQ1-KKSGGSGGEE-Glu^γ-C13-COOH] returned an EC50 on human RXFP1 receptor of 0.16 nM. Besides, in data set [1], the AUC(0-inf) came to 0.676 µM·h and the level at time molar at 24 h came to 0.09 nM.
As for `CC[C@H](C)[C@@H]1NC(=O)[C@H](C)NC(=O)[C@H]([C@@H](C)CC)NC(=O)[C@H](CCC(N)=O)NC(=O)[C@H](C)NC(=O)[C@H](CCCNC(=N)N)NC(=O)[C@H](C(C)C)NC(=O)[C@H](CC(C)C)NC(=O)[C@H](CCC(=O)O)NC(=O)[C@H](CCCNC(=N)N)NC(=O)CNC(=O)[C@@H](NC(=O)[C@H](CC(C)C)NC(=O)[C@H](CCCCN)NC(=O)[C@@H](NC(=O)[C@@H](NC(=O)[C@H](CCC(=O)O)NC(=O)[C@H](CCC(=O)O)NC(=O)[C@H](CCSC)NC(=O)[C@H](Cc2c[nH]c3ccccc23)NC(=O)[C@H](CO)NC(=O)[C@H](C)N)C(C)C)[C@@H](C)CC)CSSC[C@@H]2NC(=O)[C@@H](NC(=O)[C@H](CCCCN)NC(=O)[C@H](CC(N)=O)NC(=O)[C@H](C)NC(=O)[C@H](CC(C)C)NC(=O)[C@H](C)NC(=O)[C@H](CO)NC(=O)[C@H](Cc3ccc(O)cc3)NC(=O)[C@H](CC(C)C)NC(=O)[C@@H](N)Cc3ccc(C(C)=NOCCNC(=O)[C@H](CCCNC(=N)N)NC(=O)CNC(=O)CNC(=O)[C@H](CCC(=O)O)NC(=O)[C@H](CCC(=O)O)NC(=O)[C@H](CCCCN)NC(=O)[C@H](CCCCN)NC(=O)[C@H](CCCCN)NC(=O)[C@H](CCC(=O)O)NC(=O)[C@H](CCCCN)NC(=O)[C@H](CCC(=O)O)NC(=O)[C@H](CCCCN)NC(=O)CC[C@H](NC(=O)CCCCCCCCCCCCC(=O)O)C(=O)O)cc3)CSSC[C@H](NC(=O)CNC(=O)[C@H](C(C)C)NC(=O)[C@H](Cc3c[nH]cn3)NC2=O)C(=O)N[C@@H]([C@@H](C)O)C(=O)N[C@@H](CCCCN)C(=O)N[C@@H](CCCNC(=N)N)C(=O)N[C@@H](CO)C(=O)N[C@@H](CC(C)C)C(=O)N[C@@H](C)C(=O)N[C@@H](CCCNC(=N)N)C(=O)N[C@@H](Cc2ccccc2)C(=O)N[C@H](C(=O)O)CSSC[C@@H](C(=O)NCC(=O)N[C@@H](CCSC)C(=O)N[C@@H](CO)C(=O)N[C@H](C(=O)N[C@@H](Cc2c[nH]c3ccccc23)C(=O)N[C@@H](CO)C(=O)O)[C@@H](C)O)NC1=O` [AQ1-RGGEEKKKEKEK-Glu^γ-C13-COOH], the EC50 on human RXFP1 receptor (CHO-K1 cells stably expressing human RXFP1, 10 min at 37° C., HTRF cAMP, average, read-out: hRXFP1/CHO-K1 cAMP EC50 (nM, avg)) turned out to be 0.29 nM. Also, in data set [1], the AUC(0-inf) came out at 0.987 µM·h and the level at time molar at 24 h turned out to be 0.1 nM.
`CC[C@H](C)[C@@H]1NC(=O)[C@H](C)NC(=O)[C@H]([C@@H](C)CC)NC(=O)[C@H](CCC(N)=O)NC(=O)[C@H](C)NC(=O)[C@H](CCCNC(=N)N)NC(=O)[C@H](C(C)C)NC(=O)[C@H](CC(C)C)NC(=O)[C@H](CCC(=O)O)NC(=O)[C@H](CCCNC(=N)N)NC(=O)CNC(=O)[C@@H](NC(=O)[C@H](CC(C)C)NC(=O)[C@H](CCCCN)NC(=O)[C@@H](NC(=O)[C@@H](NC(=O)[C@H](CCC(=O)O)NC(=O)[C@H](CCC(=O)O)NC(=O)[C@H](CCSC)NC(=O)[C@H](Cc2c[nH]c3ccccc23)NC(=O)[C@H](CO)NC(=O)[C@H](C)N)C(C)C)[C@@H](C)CC)CSSC[C@@H]2NC(=O)[C@@H](NC(=O)[C@H](CCCCN)NC(=O)[C@H](CC(N)=O)NC(=O)[C@H](C)NC(=O)[C@H](CC(C)C)NC(=O)[C@H](C)NC(=O)[C@H](CO)NC(=O)[C@H](Cc3ccc(O)cc3)NC(=O)[C@H](CC(C)C)NC(=O)[C@@H](N)Cc3ccc(C(C)=NOCCNC(=O)[C@@H](CCCCN)NC(=O)[C@@H](CCCCN)NC(=O)[C@@H](CCCCN)NC(=O)[C@@H](CCCCN)NC(=O)[C@@H](CCCCN)NC(=O)[C@@H](CCCCN)NC(=O)CC[C@H](NC(=O)CCCCCCCCCCCCC(=O)O)C(=O)O)cc3)CSSC[C@H](NC(=O)CNC(=O)[C@H](C(C)C)NC(=O)[C@H](Cc3c[nH]cn3)NC2=O)C(=O)N[C@@H]([C@@H](C)O)C(=O)N[C@@H](CCCCN)C(=O)N[C@@H](CCCNC(=N)N)C(=O)N[C@@H](CO)C(=O)N[C@@H](CC(C)C)C(=O)N[C@@H](C)C(=O)N[C@@H](CCCNC(=N)N)C(=O)N[C@@H](Cc2ccccc2)C(=O)N[C@H](C(=O)O)CSSC[C@@H](C(=O)NCC(=O)N[C@@H](CCSC)C(=O)N[C@@H](CO)C(=O)N[C@H](C(=O)N[C@@H](Cc2c[nH]c3ccccc23)C(=O)N[C@@H](CO)C(=O)O)[C@@H](C)O)NC1=O` [AQ1-dKdKdKdKdKdK-Glu^γ-C13-COOH] yielded an EC50 on human RXFP1 receptor of 0.1 nM. In data set [1], the AUC(0-inf) was 0.0312 µM·h and the level at time molar at 24 h turned out to be 0.06 nM.
